The nature of this series: protease stability score; higher = more stable; yeast display proteolysis, trypsin and chymotrypsin.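 Further: log10 excess protease needed over predicted unfolded state with 0 meaning unfolded.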
In turn, “DEKALENLRRVNDARKTNDEDRIKKLLDKDARVQVGDRQIKGRENVSDTLRKLEEHMRIEIKDYRVDVQNGRAKLEVHWQFEVNGKPRKVTYDWEAEANNGKIQTMHAQFTEEDKRKRKQ” showed a protease stability score of -0.039. As to “DEKALNHANKMLEAYETGNEKQVADQVDKDVRVEIGDKFYHGRENLRERMKKLMKEARFRITVKSVKVQGDQAKIDAEVTHTHNGQPRKRHMSMTVDVQGDKIKQVHVQYHG”, the protease stability score was 0.523. The sequence “DEKALQLLQRIMEAWQKGDPQQVVDNIDKDARIHIGDKHLHGREDARRVVEQEMTEARLSFDVKHVSVQGDKVKVSFHAQLDTNGRPKTYRASATMNASNGKAKQMDVKEDK” registered a protease stability score of -0.232. In turn, “DEKALRQFEKFMEAIKNGDEEKVVQLVDPNATVRYGDKKVEGREQIKDQMKKLHEEMRIQVNSVDVEDHNGRAHVRIDVIQEHNGTPDRAQLRANMSASNGRIKDLEFTKTK” came in with a protease stability score of -0.148. The sequence “DEKALRSAEEWVRQLNENNEDTLMKLADPNAEFSIGDKTVHGREQLREWIKKTLDKMHVHVKDVKYTDSGDKAQIDIDRVNEHNGRPDEDNVEMTMHLDNGTIHSVDVRKKS” gave a protease stability score of -0.303. On to “DEKALRVAEEAIKAVQTGDPKKFATMADENARVRIGDKEVKGRENQVQLMKDWKHHMRWEQDVKSVTANGDKVEVKFEQVSETNGKPDHDTWNVHFTAQNGEVKSMTMTSNK”, for which the protease stability score is -0.504. To “DEKAMDKVRKVKEIEDEGDSDEFNKMFDPNARFNVGDKSVHGMETYVDQLSKELKRLKRSVRIKSMHAEGNRVDMTVKYEVDVNGRPYRAQVHIIYTFHNGHFSHVTYRLDPQSQREFQK” belongs 0.017; to “DEKANTQAKRLLDVMNSGDEEKILRQMDEDVEVVIGDTKVKGREDIRRWMQKVLKELRVVYDLKHLRAHNGKIDIKAKMHNNHNGQPNSNDVIIIAKIHNGRFKHFEVHTQS”, 0.804. In the case of “DEKAQDILKEIANAIRTNNPSQLKNLLDPNAKVKIGDKEFHGMDQLQEDVQRKKEKMRVDFDVRRVEVQGETVHARARVVIHHNGKPATMTYSMIVHIKNGRVRELQVNISETDKEKQKS” it was 1.62; in that of “DEKAQTRVQDYLRALQNGDHKRLREYMDENVHLRVGDKEVHGRTTAANEIVKEVRNQEMSMSIKRVRASENHVQMEVVVQVEHNGKPREFSFQLNFKLENGQAKEIKYKIDPTVLKNIRK”, 0.507; in that of “DEKARKILKKMMHALEKGDEDKVRHLLDPNVKVRIGDKDITGREEVARNIFKTLQSMRVKIDRFHVEAKGDKVRAHQTAKAQHNGQPRRYQATVTARIHNGHFQRIDIQVDK”, 0.944. To “DEKDAEKVMRELAKAAVNGNYKKAVQLVKEDVQVEYMDQRTHGKEKLKEMLKKFTDLGAEVEYKEVHVKGDTVTVKVEAKMDGKKVKFKVQYVVTDHRLDKVTVKYSEEAYKVIKHG” belongs 0.525. “DEKDAREWVKDREQNDFDQISRMMDENVKLEYGNKEVHGRERVNTELKKEEETADHVSIDRVEVEEGRAVIDAVVRFNGKDFKMVVTVSMENGKVKYIRDRFTDEQLEEDFVKQFN”: the protease stability score came to 0.728. To “DEKDEAVKLLEHLMEALRRGDEDHARSLADPNVRADIGDRDYSGRNKVAQEWIRRATQADHLELRIRDVRVDGNEVTLEAELSMKVNGETHSDTVHFQFEKHNGRVVLVHVQFK” belongs 1.56. “DEKDETVVRKWLEAQHTGNPEEAKHQVDKNVDIRVGDHKVTGRHQIMHNLEQRKKSARFELQLTHLSASNGKVTIQIDVRINYNGRPFTDTLHATAKIKNGQLHSFSVDVDEEYLKKVKS” showed a protease stability score of -0.272. As for “DEKDHARHLVKRLLHAIRTGNPDEAMRLAPPNVRVSYGDTQIHGREQFHKWVKTIRDTVDRQRFTIVNVTVHNGQANVSIRYRLNHNGKDDKNEMTARFVEHNGQLKLVSMSRS”, the protease stability score was 0.522. To “DEKDHENVARNLVTAIVQGDPDRFKELLDKNVKFKYGETDVKGKDNAERVMKDFIKEADQVRVQTLSFHGEHIVINMVADVNGEEQRFQIRAKVHNGRVKEMVWHSR” belongs 1.5; to “DEKDKARKLNDRVREVMETGDPRKFTELADPNARYIIGDKEFHGTENITKYAKTLRDQVDHVDVKVDHVNVQGNKVVADMKFTAEKNGSRLHYRMIVVAVIQGDNVNAQQVHFK”, 1.18; to “DEKDKARRMAETIDKLAERNDFEELAKNADPDAKVTVGDKTFHGEENLVKHLQEERKRIDQVRIEVKDVKVQGDEIRINAKYEATHNGRRVDQQVRVIVEVHNGRLVISEMQYE”, 0.979. In the case of “DEKDKATKMMETIKQAWDRNNPQQVASQFDKDAHIRVGDKMIHGHEQLKEFVQDVLDTYDHIKLTVTSVKQHNGRVVIVVQVHLEHNGRNDTRHYVVIIEVDNGHIRIKTMVDK”, the protease stability score amounted to 1.16.

With “DEKDKDVADELRKAYHTGDHNRLREMVDKDVKFQVGDQDYHGRETFMKLNHTERNEIRIEIQSIRVHVHNGRVTVKQVVVREHNGRPTRMQQVLTIDAHNGKIKKMFIKDDQ”, the protease stability score stood at 0.069. As for “DEKDLEELAKDVIEAYQDGDEQRLRNNFDKDARWHIGDKTFHGRERNVRHLVEEAKRVDHIHVTTMEVQGNTVRMVLRMNHNGKSDHVDIQITFENGRAQSVTVTKP”, the protease stability score is 0.369. In turn, “DEKDMEQQDRVFRHGNEKKLEDLVDEDARVEVGNRRYHGREQVVRFFQQQVKQVDHRTIRSVKLTGDKFDAVLQVVINGQTYTYRFKAKVHNGKVKVLRVEFTDPQREKEFEKQLD” returned a protease stability score of 0.206. To “DEKDNKTLHKIIRHGDWKKLQDLADENASVDIGNKKFHGRREVSKAMERLREKVDSVQYHSITVEGNSARIVYNLEVNGNRVKVQMKFSMHNGHLQEVVIRATNEEDSKKIDKQLG” belongs 0.724. “DEKDNKTYADKVAEMLKHNDPRTARELVDPNAKVQVGDSEVHGREQIENLIKTWNEQVDHVEIKKYRVEGDKVEITFVAESNGKRTHFKVVLKVRNGRATHMTIKRK”: the protease stability score was determined as 0.157. The sequence “DEKDQEQILRELAEIMKSGDEHEMENLADENVKVKIGDKTLKGKEQFRHQLKRERDRVDHLKILDMEAQGDRFIIRWQEEFNGQTRRMQVDIHIKNGKIKSAEYRHQ” had a protease stability score of 0.579. On to “DEKDQTRKAEKAARIFQHGNPDDVREMADEDVKVQIGDNRINGRHNLDTEVKELRDRVDDAKIEDFRASGNTIVLHIRFVVDGVDVHITIHINYHNGKAKRIDVKYTDERQKRRQDS”, for which the protease stability score worked out at 0.739. As for “DEKDVEKIMKKMDETFVKGNTEELEKLGKEDVEVQYGDKREKGPDAIRKVLEKVKQLGIKVEYKEVHIKGDTATVKVEADMAGQTARFEVTYVVRGNRVDRVVVKYDEEAQKVIKHG”, the protease stability score worked out at 0.772.

In the case of “DEKDVEKLQRLIKTGNEDHIANEADPNVQVTIGDDVIHGREEAVRQIQKWQRQVDHVEIKSMESQGEKVHVRRVLTVNGKNFEFTLQAEMHNGTLTHFDIQFRSEEDNKRFLKVVS”, the protease stability score was found to be 0.32. As for “DEKDVERVLEAIKTNNRSEIRNQADPNARARVGDKKLHGMEDAAHKFAKFLDRADNHEVKDVSVDGDRATMDVKVRVDGEDVRFVVKFQVKNGRITHLEVEATSDHVDRRAEQAMK”, the protease stability score is 0.581.

“DEKDVHLARKYYQNFRDGDPDKLKRMADKDAKMSVGDKHLHGMEKIATDLQREHEEMHIDRKIDDVKVNGDKAIVHLKVNINVDGKPTSDSVTVIFKFENGKITTLEYRFDPDKQRKINK”: the protease stability score was 0.294. To “DEKDVKTAVKDFNTGSFDRFKDLADKDVTARIGNHTVKGHENFQHMMKNLKDRIDHFDVDSMTIKGNEAQMEYRFEINGHDIVVILRVDIHNGRIKHMEVEFRNEEQKKRFDDNQG” belongs 0.945; to “DEKDVRILEEYVNAWNTNDPDTLNNLADPNARFKIGNKEFQGRDTLDRLAKQLRKEMRVTVHDVHAKDDDGRVDAKVDAVMHYNGKPNRDTFHFDAKVHNGRIRELNVQFDEKRKKKVDS”, -0.065. “DEKDVRRLSKYLRALQKNDPDEVRRMADPNAKAEVGDKRIHGRDEFSKHVETRRRQMRITIEHYEIKNQGDKVELNVVRRSEHNGKPRRNSVRATYVFDNGKIHSYSVKHVP” showed a protease stability score of -0.133.

The sequence “DEKEAEHVSRLVRENDFQTLRDQADKDARVRIGDREVHGRERLRSQLHKLERRIDSLEVHRVNNHPNHFHVDVVITVNGQKVTFRLNIHVHNGRIKSIEIEFTDEDQKRNMNEVFS” showed a protease stability score of -0.081.

“DEKEAKKLLEQFAKKVVNGDYEEVVKHVKDDGEAEYGDERKHGPDAVETFIRKYQKLGIKVTYDEVHVEGDTVTVKVRADYAGQTAHFKFQYHVRDQRLDRVEVKYDETAQKMIKHG” gave a protease stability score of 0.542. Regarding “DEKEAQKLLEKIAKTMKNGDTETAKKLGKDDVEVKYADDEHHGPDAIKKMLEKLKKLGLEVEYKEIHVEGDTVRVKVQVHHGGTTAHMEVEYQARGRKVDNMRVKYDERAKKLIKHG”, the protease stability score was found to be 0.471. To “DEKEDKKVLERMAKLFVSGNKEEVQKMGKDDVEVVYGDETYHGPDAARKVIERVKKLGAKVEYKEVHVEGDTMTAKVEADIAGKRVRFHVTYKATGNRVDRMEVKYTKEAQEVIKHG” belongs 0.895; to “DEKEDLTRWIEQFVHNLEHGDEERLSQLADPNARFKYGDRTLHGMENAIKTLADVMRRVDQVRIRINDITHHENRVIVDLSFVLNHNGQERHYNAKMVAYIHNGTFRIETASMK”, 0.929; to “DEKEDRKLLQQLAEMFQNGDVERVRKLGKDDVEAEYGDERQHGPDAMKKFVERVKKLGAKVEYKEVHVEGDTVTAKVQADYAGQTVEMHVTYQAQGRRMDRVKVKYDETAQKVIKHG”, 0.566. “DEKEEAEKFFEQYKHALHRGDPDQMANLADKDVRAEIGDKVVHGRDQLMTYVKTLKEHYDDISLKLKDVQVSGDKAQLHAVLTLNHNGKNDKIHIVIRMVRQGDELVMTSITYR”: the protease stability score is 0.935. In the case of “DEKEEAHRALTAMHKMMTGDFKEVMKNADENVHVEIGDKEFHGREDLHDFAREIQERVDDFRVSSVTAKGDSAVLNVRQDYNGRNERVRLEVQVSNGKIKHVRFQTG” it was -0.341. “DEKEEARELMERLREIIETGNEREAKKLADKDARNNVGDKVLHGREEIVRQLITLYKTADHVDLKFRDYRVDNGKFTMDMKVRFHHNGNTIERRYQMSFDTHNGRLTATRYRNS” showed a protease stability score of 1.06. In the case of “DEKEHATEWLEDWQQQLRTGDEKSVANLFDPNARLNVGDKEVHGREDFEKEQKKIREEADHVDVEIVDLKTSPGHIQMFFNLRQTHNGQRQSHREVMVLRLQGDEVRVVKVEHN” it was -0.056.

“DEKEHEDVAQEAVHAVQSGDPKQMVEMADPNARVVVGDKTLHGHDRIEEMVKHLRKRADHVRIIDVQVQGDKVVIRFQVVVDGRTYDVYIDLRVHNGEAKEIRFDPRRQKEMHG”: the protease stability score is 0.758.

On to “DEKEIHEIAETFVEVLRNGNHDDLKELMDENVKLVYGDKELQGHHRAASHLAELVSRVDHMSVDSITVNGDSVKVIMQFVVNGVTAHITIIIKMTNGRIKELEIRYTNEDQRRQVDK”, for which the protease stability score was 0.941. To “DEKEIQKLLEQLMKMFVNGNDEQIKKLGKDDVEATYMDEKVTGPDKVVELVKKYMDLGVKVEYKEEHVEGDKATAKVEADAGGQTVRFHVHYKATGRKMDRVEVQYDETAKKVIKHG” belongs -0.131.
